According to publication PMC8126939, “The TBC1D31/praja2 complex controls primary ciliogenesis through PKA‐directed OFD1 ubiquitylation” (The EMBO Journal, 2021):

T1: GST-praja2_(530–570) (human, UniProt O43164 530-570, fluorescent dye on primary amines (NHS-ester labelling))
T1 construct: praja2 (PJA2), human, residues 530-570; The results call P1-P3 synthetic peptides; the methods describe recombinant GST fusions; also called P1; source: recombinant, purified (GST Trap, Superdex 75 gel filtration)
T1 chain (looked up): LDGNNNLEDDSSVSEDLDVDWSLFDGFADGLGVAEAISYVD

T2: GST-praja2_(550–610) (human, UniProt O43164 550-610, fluorescent dye on primary amines (NHS-ester labelling))
T2 construct: praja2 (PJA2), human, residues 550-610; The results call P1-P3 synthetic peptides; the methods describe recombinant GST fusions; also called P2; source: recombinant, purified (GST Trap, Superdex 75 gel filtration)
T2 sequence (looked up): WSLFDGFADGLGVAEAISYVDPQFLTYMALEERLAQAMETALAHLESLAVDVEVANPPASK

T3: GST-praja2_(530–570) (human, UniProt O43164 530-570, fluorescent dye on primary amines (NHS-ester labelling))
T3 chain: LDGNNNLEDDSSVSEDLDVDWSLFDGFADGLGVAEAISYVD


Experiments:
GST-praja2_(530–570) [1] = biological target: T1, GST-praja2_(530–570); assay: MST; Monolith NT 115; GST-praja2 fragments labelled with NHS-ester dye, TBC1D31 peptides titrated (16-point 1:1 dilution); 25°C, 20 mM NaP, 200 mM NaCl, 1 mM DTT, 0.05% Tween-20, pH 7.4; details: both partners purified
GST-praja2_(550–610) = biological target: T2, GST-praja2_(550–610); assay: as above; details: both partners purified
GST-praja2_(530–570) [2] = biological target: T3, GST-praja2_(530–570); assay: MST

Row | Binder | Kd (GST-praja2_(530–570) [1]) | Kd (GST-praja2_(550–610)) | binding result (GST-praja2_(530–570) [1]) | Kd (GST-praja2_(530–570) [2])
1 | WDTTGQNLIKKVRNLRQRLTARARHRCQTPHLLAA (TBC1D31, human, C-terminus segment; also called WA35 TBC1D31; wild-type TBC1D31 peptide; source: synthetic peptide (bought: Shanghai Apeptide Co., Ltd)) [peptide of the C-terminus segment of TBC1D31] | 37 µM | 80 µM |  | 
2 | WDTTGQNLIKKVANLAQRLTARARHRCQTPHLLAA (TBC1D31, human, C-terminus segment peptide with R948A and R951A; also called TBC1D31AA; R948A-R951A; source: synthetic peptide (bought: Shanghai Apeptide Co., Ltd)) [double AA mutant TBC1D31 peptide] |  |  | binds | ~65 µM
